B1: ASIC4: ASIC4N376A (protein)
parent chain: MPIEIVCKIKFAEEDAKPKEKEAGDEQSLLGAAQGPAAPRDLATFASTSTLHGLGRACGPGPHGLRRTLWALALLTSLAAFLYQAASLARGYLTRPHLVAMDPAAPAPVAGFPAVTLCNINRFRHSALSDADIFHLANLTGLPPKDRDGHRAAGLRYPEPDMVDILNRTGHQLADMLKSCNFSGHHCSASNFSVVYTRYGKCYTFNADPQSSLPSRAGGMGSGLEIMLDIQQEEYLPIWRETNETSFEAGIRVQIHSQEEPPYIHQLGFGVSPGFQTFVSCQEQRLTYLPQPWGNCRAESELREPELQGYSAYSVSACRLRCEKEAVLQRCHCRMVHMPGNETICPPNIYIECADHTLDSLGGGSEGPCFCPTPCNLTRYGKEISMVKIPNRGSARYLARKYNRNETYIRENFLVLDVFFEALTSEAMEQQAAYGLSALLGDLGGQMGLFIGASILTLLEILDYIYEVSWDRLKRVWRRPKTPLRTSTGGISTLGLQELKEQSPCPSRGRAEGGGASSLLPNHHHPHGPPGSLFEDFAC
B2: ASIC4: ASIC4N191A (protein)
parent chain: MPIEIVCKIKFAEEDAKPKEKEAGDEQSLLGAAQGPAAPRDLATFASTSTLHGLGRACGPGPHGLRRTLWALALLTSLAAFLYQAASLARGYLTRPHLVAMDPAAPAPVAGFPAVTLCNINRFRHSALSDADIFHLANLTGLPPKDRDGHRAAGLRYPEPDMVDILNRTGHQLADMLKSCNFSGHHCSASNFSVVYTRYGKCYTFNADPQSSLPSRAGGMGSGLEIMLDIQQEEYLPIWRETNETSFEAGIRVQIHSQEEPPYIHQLGFGVSPGFQTFVSCQEQRLTYLPQPWGNCRAESELREPELQGYSAYSVSACRLRCEKEAVLQRCHCRMVHMPGNETICPPNIYIECADHTLDSLGGGSEGPCFCPTPCNLTRYGKEISMVKIPNRGSARYLARKYNRNETYIRENFLVLDVFFEALTSEAMEQQAAYGLSALLGDLGGQMGLFIGASILTLLEILDYIYEVSWDRLKRVWRRPKTPLRTSTGGISTLGLQELKEQSPCPSRGRAEGGGASSLLPNHHHPHGPPGSLFEDFAC
B3: ASIC4: ASIC4N243A (protein)
parent chain: MPIEIVCKIKFAEEDAKPKEKEAGDEQSLLGAAQGPAAPRDLATFASTSTLHGLGRACGPGPHGLRRTLWALALLTSLAAFLYQAASLARGYLTRPHLVAMDPAAPAPVAGFPAVTLCNINRFRHSALSDADIFHLANLTGLPPKDRDGHRAAGLRYPEPDMVDILNRTGHQLADMLKSCNFSGHHCSASNFSVVYTRYGKCYTFNADPQSSLPSRAGGMGSGLEIMLDIQQEEYLPIWRETNETSFEAGIRVQIHSQEEPPYIHQLGFGVSPGFQTFVSCQEQRLTYLPQPWGNCRAESELREPELQGYSAYSVSACRLRCEKEAVLQRCHCRMVHMPGNETICPPNIYIECADHTLDSLGGGSEGPCFCPTPCNLTRYGKEISMVKIPNRGSARYLARKYNRNETYIRENFLVLDVFFEALTSEAMEQQAAYGLSALLGDLGGQMGLFIGASILTLLEILDYIYEVSWDRLKRVWRRPKTPLRTSTGGISTLGLQELKEQSPCPSRGRAEGGGASSLLPNHHHPHGPPGSLFEDFAC
B4: ASIC4: ASIC4N341A (protein)
parent chain: MPIEIVCKIKFAEEDAKPKEKEAGDEQSLLGAAQGPAAPRDLATFASTSTLHGLGRACGPGPHGLRRTLWALALLTSLAAFLYQAASLARGYLTRPHLVAMDPAAPAPVAGFPAVTLCNINRFRHSALSDADIFHLANLTGLPPKDRDGHRAAGLRYPEPDMVDILNRTGHQLADMLKSCNFSGHHCSASNFSVVYTRYGKCYTFNADPQSSLPSRAGGMGSGLEIMLDIQQEEYLPIWRETNETSFEAGIRVQIHSQEEPPYIHQLGFGVSPGFQTFVSCQEQRLTYLPQPWGNCRAESELREPELQGYSAYSVSACRLRCEKEAVLQRCHCRMVHMPGNETICPPNIYIECADHTLDSLGGGSEGPCFCPTPCNLTRYGKEISMVKIPNRGSARYLARKYNRNETYIRENFLVLDVFFEALTSEAMEQQAAYGLSALLGDLGGQMGLFIGASILTLLEILDYIYEVSWDRLKRVWRRPKTPLRTSTGGISTLGLQELKEQSPCPSRGRAEGGGASSLLPNHHHPHGPPGSLFEDFAC
B5: ASIC4: ASIC4N191A, N243A, N341A, N376A (protein)
parent chain: MPIEIVCKIKFAEEDAKPKEKEAGDEQSLLGAAQGPAAPRDLATFASTSTLHGLGRACGPGPHGLRRTLWALALLTSLAAFLYQAASLARGYLTRPHLVAMDPAAPAPVAGFPAVTLCNINRFRHSALSDADIFHLANLTGLPPKDRDGHRAAGLRYPEPDMVDILNRTGHQLADMLKSCNFSGHHCSASNFSVVYTRYGKCYTFNADPQSSLPSRAGGMGSGLEIMLDIQQEEYLPIWRETNETSFEAGIRVQIHSQEEPPYIHQLGFGVSPGFQTFVSCQEQRLTYLPQPWGNCRAESELREPELQGYSAYSVSACRLRCEKEAVLQRCHCRMVHMPGNETICPPNIYIECADHTLDSLGGGSEGPCFCPTPCNLTRYGKEISMVKIPNRGSARYLARKYNRNETYIRENFLVLDVFFEALTSEAMEQQAAYGLSALLGDLGGQMGLFIGASILTLLEILDYIYEVSWDRLKRVWRRPKTPLRTSTGGISTLGLQELKEQSPCPSRGRAEGGGASSLLPNHHHPHGPPGSLFEDFAC

Assays:
[1] = surface biotinylation, western blot, CHO (n = 2); conditions: glycan lost; control: ASIC1a + ASIC4WT
[2] = whole-cell patch clamp, pH 5.0 peak current density, CHO; conditions: glycan lost; control: ASIC1a + ASIC4WT
[3] = amygdala cell surface fraction, western blot, Asic4-/- mice; conditions: glycan lost; control: AAV-DIO-ASIC4WT rescue

Protein | other: surface expression of co-expressed ASIC1a [1] | other: channel current of co-expressed ASIC1a [2] | other: surface expression of ASIC1a in vivo [3]
B1 | no change | no change | –
B2 | increases | increases | increases
B3 | no change | no change | no change
B4 | increases | increases | –
B5 | increases | increases | –
